US20230391858A1 (ANNEXON, published 2023)

Legend:
[1] = molecular target: T1, human complement factor C1q (chains A, B and C) (human, UniProt P02745 23-245; P02746 28-253; P02747 29-245); assay: cell-based or functional assay
[2] = molecular target: T1, human complement factor C1q (chains A, …); assay: method not stated; affinity stated in the description

T1 sequence (P02745 23-245 limits assumed, chain 1 of 3): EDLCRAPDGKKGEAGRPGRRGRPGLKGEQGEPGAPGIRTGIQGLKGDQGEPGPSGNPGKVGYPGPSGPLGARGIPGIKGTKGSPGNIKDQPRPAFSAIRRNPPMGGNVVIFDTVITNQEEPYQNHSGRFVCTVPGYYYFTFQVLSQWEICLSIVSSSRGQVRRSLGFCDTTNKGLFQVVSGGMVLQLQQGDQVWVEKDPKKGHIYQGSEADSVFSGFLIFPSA
T1 sequence (P02746 28-253 limits assumed, chain 2 of 3): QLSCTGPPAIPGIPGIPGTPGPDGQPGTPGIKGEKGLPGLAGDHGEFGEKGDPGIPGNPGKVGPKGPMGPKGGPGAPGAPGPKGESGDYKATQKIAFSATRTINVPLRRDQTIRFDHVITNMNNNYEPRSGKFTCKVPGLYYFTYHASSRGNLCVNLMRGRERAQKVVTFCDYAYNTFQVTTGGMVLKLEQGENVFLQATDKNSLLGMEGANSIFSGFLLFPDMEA
T1 sequence (P02747 29-245 limits assumed, chain 3 of 3): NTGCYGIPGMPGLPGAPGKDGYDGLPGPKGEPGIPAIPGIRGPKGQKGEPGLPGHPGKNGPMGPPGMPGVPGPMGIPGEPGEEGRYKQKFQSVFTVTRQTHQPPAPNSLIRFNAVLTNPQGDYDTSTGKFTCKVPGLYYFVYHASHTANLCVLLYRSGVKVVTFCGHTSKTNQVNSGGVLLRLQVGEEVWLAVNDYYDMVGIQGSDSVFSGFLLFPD

B1: FabA, anti-C1q antibody Fab fragment comprising heavy chain Fab fragment of SEQ ID NO: 39 and light chain Fab fragment of SEQ ID NO: 40 (Fab)
heavy: QVQLVQSGAELKKPGASVKVSCKSSGYHFTSYWMHWVKQAPGQGLEWIGVIHPNSGSINYNEKFESRVTITVDKSTSTAYMELSSLRSEDTAVYYCAGERDSTEVLPMDYWGQGTTVTVSSASTKGPSVFPLAPSSKSTSGGTAALGCLVKDYFPEPVTVSWNSGALTSGVHTFPAVLQSSGLYSLSSVVTVPSSSLGTQTYICNVNHKPSNTKVDKKVEPKSCDKTHT
light: DVQITQSPSSLSASLGERATINCRASKSINKYLAWYQQKPGKAPKLLIYSGSTLQSGIPARFSGSGSGTDFTLTISSLEPEDFAMYYCQQHNEYPLTFGQGTKLEIKRTVAAPSVFIFPPSDEQLKSGTASVVCLLNNFYPREAKVQWKVDNALQSGNSQESVTEQDSKDSTYSLSSTLTLSKADYEKHKVYACEVTHQGLSSPVTKSFNRGEC
notes: The heavy chain is truncated after the first heavy chain constant domain of IgG1; also called anti-C1q monovalent Fab; anti-C1q Fab
**Q.** How did the “IC50 for inhibition of hemolysis of CAD-sensitized human RBCs in normal human serum” value [1] turn out when B1 was run?
**A.** ~10 nM

**Q.** And the “IC50 of inhibition of C4 and C3d deposition on human RBCs (flow cytometry)” value [1]?
**A.** ~10 nM

**Q.** And the Kd [2]?
**A.** 0.01 nM
